This series relates to Saccharomyces cerevisiae. Description: transcriptional activation domain activity (GFP:mCherry ratio, weighted mean of sorted bins, harmonized to initial dataset scale) (arbitrary fluorescence ratio units); higher = stronger transcriptional activation. The following applies: beta-estradiol 1 µM; induction time 4 h. The method, boiled down:
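Barcoded tiles were sequenced after cells were sorted into 8 bins by GFP:mCherry ratio. Before sorting, cultures had been diluted 1:5 into SC with 1 uM beta-estradiol and held for 4 hours at 30 °C. The tiles were fused to an estradiol-inducible synthetic transcription factor and integrated at URA3 in yeast diploids carrying a GFP reporter. Activation activity is the read-weighted mean of bin median fluorescence, averaged over barcodes and linearly mapped onto the initial dataset scale, and tiles under 50 reads were left out.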

“KWLGECLNAAIAVFLYIYFLLHVGLLHLSHFFFFFFDLFSPVYTLSLQMVLYL”: the “transcriptional activation domain activity” value came out at 53800.
“SPKKAAAPKKPAAKKATEAKKASVKPKAAKETKEKKEAKPKAAKAAKPAAAAP”: the “transcriptional activation domain activity” value was 28100.
In the case of “KFYVIYTLFMVVFFMVLTICYYTNGSYGRDALGLCNFKEWNGRLVSRVYMMYL”, the “transcriptional activation domain activity” value amounted to 45000.
Next, “MALLSQVARLLGSFLCVAISCFGRLALLFLWLILAYFTFWSFFSGNLPICFCL”: 59300; “TATKPTESKPVETKTDAAAAGKSTTPANGSGSASATKPAETASTTEKKKKNRL”: 30400; “MLTHLHFVEQPLTPPFFSVSITSFLLRSFAFPPCVLPSVAFFLCLFCFLPLLV”: 56500.
For the sequence “TGGLPELREHLDDGRASYAYARVTYSNDKESQREKFVLVVWIGPACKVMRKAK”, the “transcriptional activation domain activity” value worked out at 25700.
Consider “MGFKTSMGWICLSQVSFFDCNLLYCVVFFIFSSKSLATSPFLSLVLLFSLYPL”, for which the “transcriptional activation domain activity” value worked out at 29200.
For the sequence “LLMGLYLSEICMIGLFVLRDAFGPMVLMVMFFVLSILVHLSLADAFSPLLYNL”, the “transcriptional activation domain activity” value turned out to be 52200.
Next, “LYYTAPFNLQPYISYVGCGLVCLVLFFNGFWIFFPGQFSVANLFTSYFAPVFF”: 65000.
Next, “QLLLSRLVTWLIRLVCQDEGPLVLKKMCSTLATYFLRPTASWPQCIRHLICSF”: 38800; “YYGMYPQDISTLGVSPRTPTSRLIRSYMKTILSNPESRKIFYFLMLNMCYMLV”: 58900; “DSHHHDELGSEITLADNKFSYLPPTLEELMEEQDCNNGRSFKNFMFSNDTGID”: 54500.
On to “MILVQLYIYHHFLNYRCLLHVILFRLKLILPSSSLIFVLGSVESSGNHGTSYD”, for which the “transcriptional activation domain activity” value was 49200.
As for “RMLFPNVQELHWEAQNFEKSPLLNMFMGLHLTEIYFTFSAGSYAQMTWIPIMY”, the “transcriptional activation domain activity” value is 33300.
As for “NLCMQLLVAPTRDEIDAAHRRKIWLDVGIQSWRNLTNIMPSRMWIWIILLLSS”, the figure is 34900; as for “MRELFIFILFLFHFYPYSYFNYYIFFSFSYFLFRYFVSIIIIFFLIQVVFGLV”, 101000; as for “NRKTIGKQDPYCAARLGKEAKKTETDRRGGQTPRWDQELRYTVHDSPDYYQLK”, 31200.
As for “MSEPPRKRAKLACVTCNARRVKCDVTDRHPCSNCAAGNVECETRESRRGKHIR”, the “transcriptional activation domain activity” value was 24000.
As for “MGMAYGVCCMYFLEPWWVGAISLVRFLGVGVFTLCMYFPSIMIFYFLLFFIIF”, the figure is 51000; as for “VHPIVCLVVCLLGHIWSFHVYYCLLKIGLLFSLFPLVRLARCAIFYRRCFSYF”, 40200.
As for “LRLLVAWLIPQLEMWLHTNMGVRFLLIEYTPEHLGTVLALREFIGDHMFKVAG”, the figure is 49000; as for “NLCLLIAASLISIISLVNLLDFFLTWFGQFITIENLTLELILGYILYPYAWLL”, 40000.
As to “GKTYTLEQDEDVLDTWFSSGLWPFSTLGWPNQTHDLENLFPTDVLETGWDILF”, the “transcriptional activation domain activity” value worked out at 126000.
As for “KPKPKPKQYPKVILPSNSTRRVSPVTAKTSSSAEGVVVASESPVIAPHGSSHS”, the figure is 47200; as for “VALPCSFRGLLRFACVTWLKHLFGLISRVLDFQAWWGVQLHCLFLLGLMLLPP”, 63500; as for “ARAEELGARVSTGRRVVDVRCSSRGEEGSAAVAVCADGSRYAADLVVGADGVH”, 51600.
As to “ELYGKPSMEAIFLLFAHYLYAGACAKGEHLIITTWDMYYEKLGFMLIFWNMAG”, the “transcriptional activation domain activity” value came to 64300.
In the case of “SCTGVFRAYSILIIMVMMLSEVIILFRTCVLIRRERHGHYIICILCFFSLCVL”, the “transcriptional activation domain activity” value came out at 49600.
For the sequence “SHLEQMLWRICSLVIICAPMYLALSGKVFLIFSNSIGQLYILLCIRGPFLLYI”, the “transcriptional activation domain activity” value stood at 69600.
Turning to “LYFLRPEVLPDRYAFTIPAISFLGTNDYPVLVPDLFLLLTSSFWSPTLLWFFT”, the “transcriptional activation domain activity” value was found to be 55600.
Next, “PAPSAAPAPAKEEDDDDEKEEAGGKADAKKKKKKKGKKDDEPAPAAAPAAAGK”: 29400; “GKRNSGAGGASAKAKARGAGKKPAAAGGKAGKKNVRAAKSKGKAAGARTKPAA”: 43900; “HFVELSTILGIIILHSPAICLQVVLLLFCGLHSVVVALMLDRVPPLIYLAFFV”: 66100.
Next, “ESHLVPEASKIWKPLDGYWMPSWMKYQIFIPLFMLQLLNLFWYFLIWHILIRA”: 44900; “MNPPIHSLSFLQSYICFMLIPPLPLMFIIVFHPLYFFWLFLSFLLLDYYLSLL”: 37800.
Next, “SVRHWELRVRAKYGRVLCRFLAQIEFDPFLLSDSSKRAILTVLRAVADIMVEC”: 42400; “LCAPIEVFRNICLPFVRLLHPLFFLSLLVFVEIIFPLFIPLTLLHCFLVLFGV”: 55100.
Consider “ALNDPSILETLSPFFQPFGVDVAHLPMTNPPIFQSSLPGCDEPIRRRRISISN”, for which the “transcriptional activation domain activity” value is 81300.
As for “RQYRKRKAPAPAEGEENGEVAPAAPKPKRQRKKKPAPEEGAENTDGTAAAPKP”, the figure is 47000; as for “GSKIILVVEQCMCVVIWGCKVCFLLIFWKLAWGLRVRLLIKLVASYVVATFLV”, 65900.
Regarding “MVCFKRSGLSLVFFFFFFFFFLLLVFFLFFFSLLLPIIISLVVRADLLMVHPH”, the “transcriptional activation domain activity” value was 31200.
As for “MHILFLSLFFCFTLRFSLILLFGVIWLVKAFKYCHLVYWKLITYFNLLIFALY”, the figure is 54800.
Take “LAHCGCSQSLLLLLFSFPYRYYIILFHYWVLRGGLTIPIYRVLCGFFLPSFVL”: the “transcriptional activation domain activity” value amounted to 62200.
As for “LDKVADPDYHPAVENSDVEEVMAAWRKTVREEALGVVEAGGGNVPGRGRVEVK”, the figure is 48000.
Consider “QSPPPAKKAKTAAGGRGKKVKPEPESGSEAEAKPEPVASKRGRVKKPAKAEQE”, for which the “transcriptional activation domain activity” value is 14800.
“NVLLLGLLGWLIRLVHNSEPTLVLKKLCSTLVTYFTRQSFRWRRCIKHLVCAF”: the “transcriptional activation domain activity” value is 39900.
As for “MWCTRWFLPLLLLPLPTAPPFFLALFLISLTLHSKPCFYCILLLTTLFLTSCY”, the figure is 45300; as for “MCFEFHPFSTSMFYLLSILFLDLSFWLSFYFFMSIVHSVALEFLFVFSLNFFV”, 42600; as for “HLNPSWIFLFLFLFLFSPSPFYFLFLFFFFFFGGVPGNGFGFGILLYFFAAGI”, 45700.
As for “MGQVGVFALHKVLYGIIPLFEIQTCSFYPLLVSLWHIFYLLVYIVMFMRLIIL”, the figure is 72300; as for “EEEAPEDNSGPRQGAKPAKRAHARARAPKCSGPTNAKVNGKGRARRSGRPAKK”, 24900.
Next, “GVFVLLEQYCGINFYGLRKHGGTASMCPLGGTLRSWAYRFVAISYPPKRMVNG”: 27600.
For “ANRCSFFALEFSVGISWSTVGADFYVYYPTNTSKRLTFFMTWAGLWISLIFVN”, the “transcriptional activation domain activity” value stood at 47200.
With “EKSEGANGEAGGEGSRRRASGRGRLRGRGRNGRGGRGGRAGETTDDKKEGEAT”, the “transcriptional activation domain activity” value is 26100.
As for “RTLLVVLISMLYFLTVEMFLPVFYLFDESLYNFLSWILTAFWSRLALWVLGFY”, the figure is 56000.
In the case of “EHVFLVYFFIFTMQEFAGELVSLVDVMRRIYSLDQARANRAHWWKWIFRCWLH”, the “transcriptional activation domain activity” value was found to be 58900.
In the case of “KEEESNELKSEQEPPSAVESIAAVMTPSDNGSRFYIKRRILIGNVSKYIAPER”, the “transcriptional activation domain activity” value is 23100.
Next, “AASAPAASSPSASAPADEAAENGEEAASSSKNKKKKKKGAAGGAAPAAGGKKP”: 40700; “PLYAYTIWSWLCQGVYFTLLTLLSFDQFQSLGEICFIFFELSFGNAMMVTLVS”: 80300; “CMLRFVIWLCSKWVPYRSGVWEEFKFLLDHPRRCFTLLFPSGANWWLFWVLIL”: 60600.
In the case of “DKATMRRAFFERIVTERINIMGKMSISLIHSLIVDCMFLSTARSFLWLLWAYV”, the “transcriptional activation domain activity” value came out at 56300.
Next, “GDDETDAPAKPKEGEDEKKPSSASPEDDLRSSRRSHKKREPGHRDRDRERDRD”: 15300; “VGKSCGRCRFPICYNPRGTCICCALRSNIVIPWMHFAYRNPHDRKPFVLHFTF”: 41700; “YIIPFAWLAAIGHFAVSLVIFDFAPLIHTWDVTLETLSHWLFYFRLSSILYNF”: 35200.
In the case of “MRFLLLSFPCNHHPSLSLYISSISLFLLRPFIFLSLLFFCIVSYYLGVCVVWG”, the “transcriptional activation domain activity” value is 53500.
Next, “MFHSIYLVVPSFHPSHALIVSFLFSLLRITLHLLLHFLVLYLLLCILFFWHPE”: 43100.
On to “LINYLLVLLVFRKWLKGHQVPLFVIMSYAWTRQLSFMDNVRRTNKRATLAMLR”, for which the “transcriptional activation domain activity” value is 57200.
Next, “ILRCYLQYIFALTLVFFWLLYTLTCSISQFSRHLRSWTCWIFYSLYRRILFLG”: 56200; “VLLLLYLAFRAQTIEISIPKAKFCCYDTRVRILVPSRGYRSTYMCRISLLLGC”: 19900; “IWRRQQVELWCNYRVPGRQWLFGHKRLRHVIHLIPGRTHLSLYSSVDRIFCLH”: 48600.
As for “SGPRASSGAKAQSLSQRGAKRKAASTARTEGASSSKSSRARGGKARASRVAKT”, the figure is 32900.
For the sequence “MAVIWGLDLKDMQWSKFKGSYMFNNVYHLRKVKMIVYQIAMILCVVSESVGTA”, the “transcriptional activation domain activity” value was found to be 66800.
Next, “MSSPEVNSSQPASSPRKARRYGFACASCKARKVKCSGDQPVCRACRRANESCV”: 24300.

For the origin of these results see the supplement of paper PMC12636428.
